Measurements published in patent US12161729B2, “Methods and compositions for visualizing a ureter in a surgical procedure” (ALUME BIOSCIENCES, INC., priority 2021, dated 2024).
Where two headings read alike, the source gives them in different places. Residues, ends and D or L forms follow the SMILES beside them. *: point of attachment. 5FAM = O=C1OC2(c3ccc(O)cc3Oc3cc(O)ccc32)c2ccc(C(=O)*)cc21; FAM = carboxyfluorescein

Assays:
[1] = test system: human resected nerve tissues; details: human tissue, topical administration; cited from earlier work
[2] = test system: rodent resected nerve tissues; details: rodent tissue, topical administration; cited from earlier work
[3] = in vivo; cited from earlier work
nerve = details: cited from earlier work; for nerve detection following intravenous administration: rodent models
[4] = test system: rat sciatic and prostate nerves; details: several hours after intravenous administration; cited from earlier work
ureter [5] = assay: Fluorescent visualization of the ureter after intravenous administration, mouse model; type: in vivo
Experimental: FIG. 1: Bright field and fluorescence overlay image of a ureter in a living wild type mouse following intravenous administration of about 2000 nanomoles of a fluorescent conjugate (SEQ ID NO:747). Images were obtained 2 hours following administration using a customized fluorescence detection microscope. Left panel: White reflectance image. Right panel: fluorescence overlay.
(§1) A rodent model was to use to evaluate the dynamics of fluorescent visualization of 5-FAM-QVPWEEPYYVVKKSSGG-NH2 (HNP401-N-2 with GG linker; SEQ ID NO:747) following intravenous administration. The conjugate was administered in a wide range of amounts and fluorescence was detected using a customized microscope. […] Rather it reflects fluorescence of urine flowing down the ureter from the kidney to the bladder.

ureter [6] = assay: Time course of ureter illumination in rodent models; type: in vivo; details: rodent model
Experimental: as §1
These include molecules consisting of related HNP401 peptides conjugated to FAM, as well as molecules consisting of related HNP401 peptides conjugated to other fluorescent moieties. In addition, the studies presented here allow concurrent visualization of nerves in conjunction with ureters.

[7] = Bioanalysis of fluorescent conjugate in the urine of surgery patients (LC-MS/MS); type: in vivo, human; details: for Test Drug (ng/mL) in urine / level at 30 min after infusion: 500 mg intravenous; for level at 30 min after infusion: human, urine, iv, 500 mg, read-out: Test Drug (ng/mL) in urine
Experimental: Urine samples were collected 30 minutes before intravenous administration of 500 mg of parent test drug (corresponding to the fluorescent-conjugated peptide, SEQ ID NO:747), 30 minutes after infusion prior to head and neck surgery, and 22 hours later. The concentration of intact parent test drug was determined by liquid chromatography with tandem mass spectrometry (LC-MS/MS) using a qualified bioanalytical method. Also evaluated was the presence of metabolites M3-M8 (initially identified from in vitro studies) corresponding to shortened versions of the parent peptide conjugated to the fluorescent moiety.

Row | Compound | fluorescent labeling of resected nerve tissues [1] | fluorescent labeling of resected nerve tissues [2] | serum half-life (as measured by serum fluorescence) [3] | half-life of nerve fluorescence (nerve; in vivo) | persistence of fluorescence in tissues (nerve; in vivo) | nerve detection following intravenous administration (nerve) | fluorescence in rat sciatic and prostate nerves [4] | half-life in the blood [3] [min] | ureter illumination (fluorescence) (ureter [5]; 2 hours following intravenous administration of about 2000 nanomoles (~200 mg/kg)) | ureter illumination (fluorescence) (ureter [5]; intravenous, 100 nanomoles to 2000 nanomoles (~10 mg/kg to ~200 mg/kg)) | time at which fluorescent visualization of the ureter was first observed following conjugate administration (ureter [6]; early observation) | time up to which fluorescent visualization of the ureter was observed following conjugate administration (ureter [6]; extended time course) | detection in urine, number of subjects ([7]; 30-minute time-point, test drug or fluorescent metabolites, five subjects evaluated) | Test Drug (ng/mL) in urine ([7]; Subject 1, 30 min after infusion) | Test Drug (ng/mL) in urine ([7]; Subject 2, 22 hours) | Test Drug (ng/mL) in urine ([7]; Subject 3, 22 hours) | Test Drug (ng/mL) in urine ([7]; Subject 4, 30 min after infusion) | level at 30 min after infusion ([7]; Subject 2, 30 min after infusion) [ng/mL] | level at 30 min after infusion ([7]; Subject 3, 30 min after infusion) [ng/mL] | level at 30 min after infusion ([7]; Subject 5, 30 min after infusion) [ng/mL]
1 | FAM-NP41: carboxyfluorescein (FAM) coupled to the C-terminal lysine of acetylated NP41 (Ac-SHSNTQTLAKAPEHTGK) via a lysinamide linkage (Ac-SHSNTQTLAKAPEHTGK(FAM)-NH2) [reference compound] | fluorescent labeling | fluorescent labeling | about ten | about 50 minutes | persist at a low level in tissues for hours | sensitive nerve detection |  |  |  |  |  |  |  |  |  |  |  |  |  | 
2 | FAM-HNP401: FAM conjugated to the C-terminal cysteine of acetylated HNP401 with GCC linker (Ac-SGQVPWEEPYYVVKKSSGGC-CONH2) (Ac-SGQVPWEEPYYVVKKSSGGC(FAM)-NH2) | fluorescent labeling | fluorescent labeling |  |  |  | sensitive nerve detection | observed | 15 |  |  |  |  |  |  |  |  |  |  |  | 
3 | CC(C)[C@H](NC(=O)[C@H](Cc1ccc(O)cc1)NC(=O)[C@H](Cc1ccc(O)cc1)NC(=O)[C@@H]1CCCN1C(=O)[C@H](CCC(=O)O)NC(=O)[C@H](CCC(=O)O)NC(=O)[C@H](Cc1c[nH]c2ccccc12)NC(=O)[C@@H]1CCCN1C(=O)[C@@H](NC(=O)[C@H](CCC(N)=O)NC(=O)c1ccc2c(c1)C(=O)OC21c2ccc(O)cc2Oc2cc(O)ccc21)C(C)C)C(=O)N[C@H](C(=O)N[C@@H](CCCCN)C(=O)N[C@@H](CCCCN)C(=O)N[C@@H](CO)C(=O)N[C@@H](CO)C(=O)NCC(=O)NCC(N)=O)C(C)C [SEQ ID NO:747, 5-FAM-QVPWEEPYYVVKKSSGG-NH2] (5FAM-QVPWEEPYYVVKKSSGG-NH2) |  |  |  |  |  |  |  |  | readily illuminated | revealed ureter illumination | less than 1 hour | at least 6 hours | detected in four of five subjects | BQL* (BQL: Below Quantitation Limit (10 ng/ml)) | BQL (BQL: Below Quantitation Limit (10 ng/ml)) | BQL (BQL: Below Quantitation Limit (10 ng/ml)) | BQL (BQL: Below Quantitation Limit (10 ng/ml)) | 11.5 | 19 | 10.1
